Experimental data from PMC12811900 (Nature microbiology, 2025).

Target: the molecule itself
Assay: cryo-EM structure

B1: Sth enolase, untagged, expressed in E. coli (enzyme, Streptococcus thermophilus DGCC7710)
chain: MSIITDVYAREVLDSRGNPTLEVEVYTESGAFGRGMVPSGASTGEHEAVELRDGDKARYGGLGTQKAVDNVNNVIAEHIIGFDVRDQQGIDRAMIALDGTPNKGKLGANAILGVSIAVARAAADYLEVPLYSYLGGFNTKVLPTPMMNIINGGSHSDAPIAFQEFMIVPAGAPTFKEALRWGAEIFHALKKILKERGLETAVGDEGGFAPRFNGTEDGVETIIKAIEAAGYVPGKDVFIGLDCASSEFYDAERKVYDYTKFEGEGAAVRTAAEQIDYLEELVNKYPIITIEDGMDENDWDGWKALTERLGGKVQLVGDDFFVTNTAYLEKGIAEHAANSILIKVNQIGTLTETFDAIEMAKEAGYTAVVSHRSGETEDSTIADIAVATNAGQIKTGSLSRTDRIAKYNQLLRIEDQLGEVAEYRGLKSFYNLKK
stoichiometry N: 8
